Laboratory results taken from patent US20140073761A1, “CONJUGATES CONTAINING HYDROPHILIC SPACER LINKERS” (priority 2007, published 2014).
Marks after values point to notes of the source that are not given here.

What was measured:
[1] = in vivo; parameters: species or system mice; conditions: for MTD: mouse, in vivo, read-out: Single Dose MTDapp
[2] = FIG. 3B; M109 tumors; TIW 3 μmol/kg, 3 wks
Experimental: Toxicity as Measured by Weight Loss. The percentage weight change was determined in mice (5 mice/group) on selected days post-tumor inoculation (PTI), compared to controls, and graphed.

[3] = tested on: folate receptor-positive KB cells; format: cell-based; conditions: excess folic acid
Experimental: Inhibition of Cellular DNA Synthesis. The compounds described herein were evaluated using an in vitro cytotoxicity assay that predicts the ability of the drug to inhibit the growth of folate receptor-positive KB cells. The compounds were comprised of folate linked to a respective chemotherapeutic drug, as prepared according to the protocols described herein. […] The cells were then rinsed once with fresh culture medium and incubated in fresh culture medium for 72 hours at 37° C. Cell viability was assessed using a ^3H-thymidine incorporation assay.
In Vitro Concentration-Dependent Cytotoxic Activity. Cells were heavily seeded in 24-well Falcon plates and allowed to form nearly confluent monolayers overnight. Thirty minutes prior to the addition of test article, spent medium was aspirated from all wells and replaced with fresh folate-free RPMI (FFRPMI). […] Treated cells were pulsed for 2 h at 37° C., rinsed 4 times with 0.5 mL of media, and then chased in 1 mL of fresh media up to 70 h. Spent media was aspirated from all wells and replaced with fresh media containing 5 μCi/mL ^3H-thymidine. Following a further 2 h 37° C. incubation, cells were washed 3 times with 0.5 mL of PBS and then treated with 0.5 mL of ice-cold 5% trichloroacetic acid per well. After 15 min, the trichloroacetic acid was aspirated and the cell material solubilized by the addition of 0.5 mL of 0.25 N sodium hydroxide for 15 min. Four hundred and fifty μL of each solubilized sample were transferred to scintillation vials containing 3 mL of Ecolume scintillation cocktail and then counted in a liquid scintillation counter. Final tabulated results were expressed as the percentage of ^3H-thymidine incorporation relative to untreated controls.
As shown in the figures herein, dose-dependent cytotoxicity was measurable, and in most cases, the IC50 values (concentration of drug conjugate required to reduce ^3H-thymidine incorporation into newly synthesized DNA by 50%) were in the low nanomolar range. […] The following table illustrated data for selected compounds against KB cells and against RAW264.7 cells

[4] = rat, in vivo
Excerpt: Comparison of Bile Clearance (% ID) of unconjugated drug, drug conjugate lacking a hydrophilic spacer linker, and conjugates described herein.

[5] = mice, single dose, EC0234 dose limited by solubility

Row | Structure (SMILES) | MTD [1, 5] [µmol/kg] | gross toxicity (percentage body weight change) [2] | KB Cells Competable with xs folate [3] | Bile clearance (% ID) [4] [% ID] | further results
1 | CC[C@]1(O)C[C@H]2CN(CCc3c([nH]c4ccccc34)[C@@](C(=O)OC)(c3cc4c(cc3OC)N(C)[C@H]3[C@@](O)(C(=O)NNC(=O)OCCSSC[C@H](NC(=O)[C@@H](NC(=O)CC[C@H](NC(=O)c5ccc(NCc6cnc7nc(N)[nH]c(=O)c7n6)cc5)C(=O)O)[C@@H](O)[C@H](O)[C@H](O)CO)C(=O)O)[C@H](O)[C@]5(CC)C=CCN6CC[C@]43[C@@H]65)C2)C1 [EC0234, Mono-Saccharo-Folate Vinblastine Conjugate] | 12 | no gross toxicity was observed | – | – | –
2 | CC[C@]1(O)C[C@H]2CN(CCc3c([nH]c4ccccc34)[C@@](C(=O)OC)(c3cc4c(cc3OC)N(C)[C@H]3[C@@](O)(C(=O)NNC(=O)OCCSSC[C@H](NC(=O)[C@@H](NC(=O)[C@@H](NC(=O)[C@H](CC(=O)O)NC(=O)[C@@H](NC(=O)CC[C@H](NC(=O)c5ccc(NCc6cnc7nc(N)[nH]c(=O)c7n6)cc5)C(=O)O)[C@@H](O)[C@H](O)[C@H](O)CO)[C@@H](O)[C@H](O)[C@H](O)CO)[C@@H](O)[C@H](O)[C@H](O)CO)C(=O)O)[C@H](O)[C@]5(CC)C=CCN6CC[C@]43[C@@H]65)C2)C1 [EC0258, Tris-Saccharo-Asp-Folate Vinblastine Conjugate] | – | – | Yes | 3.2 | –
3 | CC[C@]1(O)C[C@H]2CN(CCc3c([nH]c4ccccc34)[C@@](C(=O)OC)(c3cc4c(cc3OC)N(C)[C@H]3[C@@](O)(C(=O)NNC(=O)OCCSSC[C@H](NC(=O)[C@@H](NC(=O)[C@H](CC(=O)O)NC(=O)[C@@H](NC(=O)CC[C@H](NC(=O)c5ccc(NCc6cnc7nc(N)[nH]c(=O)c7n6)cc5)C(=O)O)[C@@H](O)[C@H](O)[C@H](O)CO)[C@@H](O)[C@H](O)[C@H](O)CO)C(=O)O)[C@H](O)[C@]5(CC)C=CCN6CC[C@]43[C@@H]65)C2)C1 [EC0246, Bis-Saccharo-Folate Vinblastine Conjugate] | – | no gross toxicity was observed | – | – | mice died ([1]; at 20 μmol/kg single dose): **⅓ mice died at 20 μmol/kg.; Single Dose MTDapp [1, 5]: <20** μmol/kg
4 | CC[C@]1(O)C[C@H]2CN(CCc3c([nH]c4ccccc34)[C@@](C(=O)OC)(c3cc4c(cc3OC)N(C)[C@H]3[C@@](O)(C(=O)NNC(=O)OCCSSC[C@H](NC(=O)CCOCCOCCOCCOCCOCCOCCOCCOCCOCCOCCOCCOCCNC(=O)CC[C@H](NC(=O)c5ccc(NCc6cnc7nc(N)nc(O)c7n6)cc5)C(=O)O)C(=O)O)[C@H](O)[C@]5(CC)C=CCN6CC[C@]43[C@@H]65)C2)C1 [EC0409] | – | – | Yes | 7.9 | –
5 | CC[C@]1(O)C[C@H]2CN(CCc3c([nH]c4ccccc34)[C@@](C(=O)OC)(c3cc4c(cc3OC)N(C)[C@H]3[C@@](O)(C(=O)NNC(=O)OCCSSC[C@H](NC(=O)[C@@H](NC(=O)[C@H](CC(=O)O)NC(=O)[C@@H](NC(=O)[C@H](CC(=O)O)NC(=O)[C@@H](NC(=O)CC[C@H](NC(=O)c5ccc(NCc6cnc7nc(N)[nH]c(=O)c7n6)cc5)C(=O)O)[C@@H](O)[C@H](O)[C@H](O)CO)[C@@H](O)[C@H](O)[C@H](O)CO)[C@@H](O)[C@H](O)[C@H](O)CO)C(=O)O)[C@H](O)[C@]5(CC)C=CCN6CC[C@]43[C@@H]65)C2)C1 [EC0263, Tris-Saccharo-Bis-Asp-Folate Vinblastine Conjugate] | > 20 | – | – | – | –
